Reference: US20130172533A1 (INDUSTRIAL TECHNOLOGY RESEARCH INSTITUTE, published 2013)

B1: humanized My10 IgG (hMy10 IgG) (antibody, V domains shown)
VH: EVQLVESGGGLVQPGGSLRLSCAVSGFSLTSHGVHWVRQAPGKGLEWLGVIWGAGRTDYNAAFISRLSISRDISKSQVYLQMNSLRAEDTAVYYCARNRYESYFDYWGQGTLVTVSS
VL: DIQMTQSPSSLSASVGDRVTITCRSSQNLVHSNGNTYLHWYQQKPGKAPKLLIYKVSNRFSGVPDRFSGSGSGTEFTLTISSLQPEDFATYYCSQSTHVPLTFGQGTKVEIKR
notes: also called humanized My10 (hMy10) IgG1; humanized anti-human CD34 monoclonal antibody

Target: T1, human CD34 surface antigen on KG1a cells (human, UniProt P28906 32-385)
T1 construct: whole, on cells; The target was always presented on KG1a cells; No recombinant CD34 was used; also called surface antigen CD34; CD34 antigen
T1 sequence (looked up): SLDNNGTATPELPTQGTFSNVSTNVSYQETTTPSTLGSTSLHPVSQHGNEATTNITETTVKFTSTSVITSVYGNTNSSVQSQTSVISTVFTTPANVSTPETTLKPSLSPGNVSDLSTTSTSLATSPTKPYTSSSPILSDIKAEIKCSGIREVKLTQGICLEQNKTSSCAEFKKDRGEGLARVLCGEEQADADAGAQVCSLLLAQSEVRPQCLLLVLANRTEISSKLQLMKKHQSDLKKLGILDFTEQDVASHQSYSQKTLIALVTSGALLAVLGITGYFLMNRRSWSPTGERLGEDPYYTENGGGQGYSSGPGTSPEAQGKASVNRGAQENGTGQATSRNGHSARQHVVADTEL
Experiment: flow cytometry, antibody titration on CD34+ KG1a cells
Protocol: KG1a cells expressing the surface antigen CD34 were used for determining the antibody binding affinity. The antibody in aliquots were individually added into KG1a cells (about 1×10⁶ cells) and reacted at 4° C. for 1 hour. The cells were washed with the FACS buffer (DPBS buffer with 2% fetus bovine serum) three times and then treated with the goat anti-mouse IgG (H+L) Alexa Fluor 488 responsive to mMy10 IgG and the goat anti-human IgG (H+L) Alexa Fluor 647 responsive to hMy10 IgG at 4° C. for 1 hour. The cells were further washed with the FACS buffer and analyzed under the FACSCalibur flow cytometer.
For determining the binding affinity of hMy10 IgG and mMy10 IgG to the surface antigen CD34 of human stem cells, a KG1a cell line was used as the cell expressing the surface antigen CD34.

Molecule | Kd [nM]
anti-My10 murine monoclonal antibody (mMy10 IgG) | 6.7
B1 | 6.9
